In patent US20150322128A1 (Sanofi, published 2015):
Where a chain is given by its changes, count along the chain named. Numbered stars: 1 amine (or outer) side, 2 acyl side, 3 side chain; on linkers, the order of the positions; unused ones are H or OH. Square brackets hold non-standard residues; d marks the D form. Side chains are listed from the residue outwards. Ends that are not written are not given here. * marks the point of attachment. γGlu = O=C(O)[C@H](CCC(=O)[*:2])N[*:1]; Palmitoyl = CCCCCCCCCCCCCCCC(=O)*; Aib = CC(C)(N)C(=O)O

T1: human GIP receptor (human, UniProt P48546 22-466)
T1 sequence (looked up): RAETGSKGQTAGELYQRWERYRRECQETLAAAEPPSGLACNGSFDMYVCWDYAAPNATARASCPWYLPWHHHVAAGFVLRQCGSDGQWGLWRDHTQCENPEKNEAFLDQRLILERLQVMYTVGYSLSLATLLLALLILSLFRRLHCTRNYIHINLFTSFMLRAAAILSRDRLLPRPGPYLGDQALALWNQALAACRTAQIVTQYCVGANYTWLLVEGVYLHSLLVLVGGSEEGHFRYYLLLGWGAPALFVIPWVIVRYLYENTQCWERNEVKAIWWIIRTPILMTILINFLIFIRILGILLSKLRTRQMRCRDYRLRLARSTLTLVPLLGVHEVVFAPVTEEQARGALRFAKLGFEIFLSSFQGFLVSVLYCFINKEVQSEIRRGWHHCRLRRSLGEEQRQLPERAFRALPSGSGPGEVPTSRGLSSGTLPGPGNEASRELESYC

B1: SEQ ID NO: 16 (peptide)
peptide: H[dS]QGTFTSDLSKQK([γGlu-γGlu-Palmitoyl])EEEAARLFIEWL[Aib]AGGPSSGAPPPS-NH2
modifications: N-terminus assumed
SMILES: CCCCCCCCCCCCCCCC(=O)N[C@@H](CCC(=O)N[C@@H](CCC(=O)NCCCC[C@H](NC(=O)[C@H](CCC(N)=O)NC(=O)[C@H](CCCCN)NC(=O)[C@H](CO)NC(=O)[C@H](CC(C)C)NC(=O)[C@H](CC(=O)O)NC(=O)[C@H](CO)NC(=O)[C@@H](NC(=O)[C@H](Cc1ccccc1)NC(=O)[C@@H](NC(=O)CNC(=O)[C@H](CCC(N)=O)NC(=O)[C@@H](CO)NC(=O)[C@@H](N)Cc1c[nH]cn1)[C@@H](C)O)[C@@H](C)O)C(=O)N[C@@H](CCC(=O)O)C(=O)N[C@@H](CCC(=O)O)C(=O)N[C@@H](CCC(=O)O)C(=O)N[C@@H](C)C(=O)N[C@@H](C)C(=O)N[C@@H](CCCNC(=N)N)C(=O)N[C@@H](CC(C)C)C(=O)N[C@@H](Cc1ccccc1)C(=O)N[C@H](C(=O)N[C@@H](CCC(=O)O)C(=O)N[C@@H](Cc1c[nH]c2ccccc12)C(=O)N[C@@H](CC(C)C)C(=O)NC(C)(C)C(=O)N[C@@H](C)C(=O)NCC(=O)NCC(=O)N1CCC[C@H]1C(=O)N[C@@H](CO)C(=O)N[C@@H](CO)C(=O)NCC(=O)N[C@@H](C)C(=O)N1CCC[C@H]1C(=O)N1CCC[C@H]1C(=O)N1CCC[C@H]1C(=O)N[C@@H](CO)C(N)=O)[C@@H](C)CC)C(=O)O)C(=O)O
B2: SEQ ID NO: 6 (peptide)
peptide: H[dS]HGTFTSDLSKQK([γGlu-γGlu-Palmitoyl])EEEAARLFIEWL[Aib]AGGPSSGAPPPS-NH2
modifications: N-terminus assumed
SMILES: CCCCCCCCCCCCCCCC(=O)N[C@@H](CCC(=O)N[C@@H](CCC(=O)NCCCC[C@H](NC(=O)[C@H](CCC(N)=O)NC(=O)[C@H](CCCCN)NC(=O)[C@H](CO)NC(=O)[C@H](CC(C)C)NC(=O)[C@H](CC(=O)O)NC(=O)[C@H](CO)NC(=O)[C@@H](NC(=O)[C@H](Cc1ccccc1)NC(=O)[C@@H](NC(=O)CNC(=O)[C@H](Cc1c[nH]cn1)NC(=O)[C@@H](CO)NC(=O)[C@@H](N)Cc1c[nH]cn1)[C@@H](C)O)[C@@H](C)O)C(=O)N[C@@H](CCC(=O)O)C(=O)N[C@@H](CCC(=O)O)C(=O)N[C@@H](CCC(=O)O)C(=O)N[C@@H](C)C(=O)N[C@@H](C)C(=O)N[C@@H](CCCNC(=N)N)C(=O)N[C@@H](CC(C)C)C(=O)N[C@@H](Cc1ccccc1)C(=O)N[C@H](C(=O)N[C@@H](CCC(=O)O)C(=O)N[C@@H](Cc1c[nH]c2ccccc12)C(=O)N[C@@H](CC(C)C)C(=O)NC(C)(C)C(=O)N[C@@H](C)C(=O)NCC(=O)NCC(=O)N1CCC[C@H]1C(=O)N[C@@H](CO)C(=O)N[C@@H](CO)C(=O)NCC(=O)N[C@@H](C)C(=O)N1CCC[C@H]1C(=O)N1CCC[C@H]1C(=O)N1CCC[C@H]1C(=O)N[C@@H](CO)C(N)=O)[C@@H](C)CC)C(=O)O)C(=O)O
B3: SEQ ID NO: 9 (peptide)
peptide: HXQGTFTSDLSKQKDEEAARLFIEWLXAGGPSSGAPPPS
modifications: D-Ser at 2; Lys 14 side chain K(γE-γE-x53) = (S)-4-Carboxy-4-((S)-4-carboxy-4-hexadecanoylamino-butyrylamino)-butyryl-; Aib at 27; C-terminal amide
B4: SEQ ID NO: 13 (peptide)
peptide: B3 peptide
modifications: D-Ser at 2; Lys 14 side chain K(γE-x70) = (S)-4-Carboxy-4-octadecanoylamino-butyryl-; Aib at 27; C-terminal amide
B5: SEQ ID NO: 14 (peptide)
peptide: B3 peptide
modifications: D-Ser at 2; Lys 14 side chain K(γE-x53) = (S)-4-Carboxy-4-hexadecanoylamino-butyryl-; Aib at 27; C-terminal amide
B6: SEQ ID NO: 11 (peptide)
peptide: HSQGTFTSDLSKQK([γGlu-γGlu-Palmitoyl])DEEAARLFIEWL[Aib]AGGPSSGAPPPS-NH2
modifications: N-terminus assumed
SMILES: CCCCCCCCCCCCCCCC(=O)N[C@@H](CCC(=O)N[C@@H](CCC(=O)NCCCC[C@H](NC(=O)[C@H](CCC(N)=O)NC(=O)[C@H](CCCCN)NC(=O)[C@H](CO)NC(=O)[C@H](CC(C)C)NC(=O)[C@H](CC(=O)O)NC(=O)[C@H](CO)NC(=O)[C@@H](NC(=O)[C@H](Cc1ccccc1)NC(=O)[C@@H](NC(=O)CNC(=O)[C@H](CCC(N)=O)NC(=O)[C@H](CO)NC(=O)[C@@H](N)Cc1c[nH]cn1)[C@@H](C)O)[C@@H](C)O)C(=O)N[C@@H](CC(=O)O)C(=O)N[C@@H](CCC(=O)O)C(=O)N[C@@H](CCC(=O)O)C(=O)N[C@@H](C)C(=O)N[C@@H](C)C(=O)N[C@@H](CCCNC(=N)N)C(=O)N[C@@H](CC(C)C)C(=O)N[C@@H](Cc1ccccc1)C(=O)N[C@H](C(=O)N[C@@H](CCC(=O)O)C(=O)N[C@@H](Cc1c[nH]c2ccccc12)C(=O)N[C@@H](CC(C)C)C(=O)NC(C)(C)C(=O)N[C@@H](C)C(=O)NCC(=O)NCC(=O)N1CCC[C@H]1C(=O)N[C@@H](CO)C(=O)N[C@@H](CO)C(=O)NCC(=O)N[C@@H](C)C(=O)N1CCC[C@H]1C(=O)N1CCC[C@H]1C(=O)N1CCC[C@H]1C(=O)N[C@@H](CO)C(N)=O)[C@@H](C)CC)C(=O)O)C(=O)O
B7: SEQ ID NO: 28 (peptide)
peptide: H[dS]QGTFTSDLSKQLDEEAARLFIEWL[Aib]AGGPSSGAPPPS-NH2
modifications: N-terminus assumed
SMILES: CC[C@H](C)[C@H](NC(=O)[C@H](Cc1ccccc1)NC(=O)[C@H](CC(C)C)NC(=O)[C@H](CCCNC(=N)N)NC(=O)[C@H](C)NC(=O)[C@H](C)NC(=O)[C@H](CCC(=O)O)NC(=O)[C@H](CCC(=O)O)NC(=O)[C@H](CC(=O)O)NC(=O)[C@H](CC(C)C)NC(=O)[C@H](CCC(N)=O)NC(=O)[C@H](CCCCN)NC(=O)[C@H](CO)NC(=O)[C@H](CC(C)C)NC(=O)[C@H](CC(=O)O)NC(=O)[C@H](CO)NC(=O)[C@@H](NC(=O)[C@H](Cc1ccccc1)NC(=O)[C@@H](NC(=O)CNC(=O)[C@H](CCC(N)=O)NC(=O)[C@@H](CO)NC(=O)[C@@H](N)Cc1c[nH]cn1)[C@@H](C)O)[C@@H](C)O)C(=O)N[C@@H](CCC(=O)O)C(=O)N[C@@H](Cc1c[nH]c2ccccc12)C(=O)N[C@@H](CC(C)C)C(=O)NC(C)(C)C(=O)N[C@@H](C)C(=O)NCC(=O)NCC(=O)N1CCC[C@H]1C(=O)N[C@@H](CO)C(=O)N[C@@H](CO)C(=O)NCC(=O)N[C@@H](C)C(=O)N1CCC[C@H]1C(=O)N1CCC[C@H]1C(=O)N1CCC[C@H]1C(=O)N[C@@H](CO)C(N)=O
B8: SEQ ID NO: 32 (peptide)
peptide: B3 peptide with X27K
modifications: D-Ser at 2; Lys 14 side chain K(γE-γE-x53) = (S)-4-Carboxy-4-((S)-4-carboxy-4-hexadecanoylamino-butyrylamino)-butyryl-; C-terminal amide

target: T2, human GLP-1 receptor (human, UniProt P43220 24-463); assay: cell-based or functional assay

Binder	EC50 hGLP-1R [nM]
B1	0.0018
B2	0.0026
B3	0.0018
B4	0.0027
B5	0.0021
H[dS]HGTFTSDLSKQK([γGlu-γGlu-Palmitoyl])DEEAARLFIEWL[Aib]AGGPSSGAPPPS-NH2 [SEQ ID NO: 7]	0.0015
B6	0.0012

target: T1, human GIP receptor; assay: cell-based or functional assay

Binder	EC50 hGIP-R [nM]
B1	7.78
B2	1.54
B3	3.6
B4	2.54
B5	5.36
H[dS]HGTFTSDLSKQK([γGlu-γGlu-Palmitoyl])DEEAARLFIEWL[Aib]AGGPSSGAPPPS-NH2 [SEQ ID NO: 7]	0.908
B6	0.56

target: T3, human glucagon receptor (human, UniProt P47871 26-477); assay: cell-based or functional assay
T3 sequence (P47871 26-477): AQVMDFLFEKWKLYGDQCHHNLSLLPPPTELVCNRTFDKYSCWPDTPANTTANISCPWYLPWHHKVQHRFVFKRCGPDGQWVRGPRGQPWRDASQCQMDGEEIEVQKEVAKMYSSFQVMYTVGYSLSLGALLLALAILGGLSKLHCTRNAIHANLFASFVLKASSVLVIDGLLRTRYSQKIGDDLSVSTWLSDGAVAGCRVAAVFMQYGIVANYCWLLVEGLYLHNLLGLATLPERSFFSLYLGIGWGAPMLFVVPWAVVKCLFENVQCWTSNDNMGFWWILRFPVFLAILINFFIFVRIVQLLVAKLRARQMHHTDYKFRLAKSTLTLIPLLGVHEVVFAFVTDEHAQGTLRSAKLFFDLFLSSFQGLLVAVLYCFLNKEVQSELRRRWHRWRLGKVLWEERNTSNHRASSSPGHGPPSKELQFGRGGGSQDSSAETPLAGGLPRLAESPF

Binder	EC50 hGlucagon-R [nM]
B1	0.0354
B2	0.0177
B3	0.0118
B4	0.0068
B5	0.0247
H[dS]HGTFTSDLSKQK([γGlu-γGlu-Palmitoyl])DEEAARLFIEWL[Aib]AGGPSSGAPPPS-NH2 [SEQ ID NO: 7]	0.009
B6	0.0051

target: T2, human GLP-1 receptor; assay: cell-based or functional assay; remark: another data set of the same source

Binder	EC50 hGLP-1R [nM]
B7	0.0038
H[dS]QGTFTSDLSKQLDEEAARLFIEWLKAGGPSSGAPPPS-NH2 [SEQ ID NO: 34]	0.0008
B8	0.0019
B3	0.0018
B4	0.0027
B5	0.0021

target: T1, human GIP receptor; assay: cell-based or functional assay; remark: another data set of the same source

Binder	EC50 hGIP-1 [nM]
B7	343
H[dS]QGTFTSDLSKQLDEEAARLFIEWLKAGGPSSGAPPPS-NH2 [SEQ ID NO: 34]	26
B8	0.565
B3	3.6
B4	2.54
B5	5.36

target: T3, human glucagon receptor; assay: cell-based or functional assay; remark: another data set of the same source

Binder	EC50 hGlucagon-R [nM]
B7	1.04
H[dS]QGTFTSDLSKQLDEEAARLFIEWLKAGGPSSGAPPPS-NH2 [SEQ ID NO: 34]	0.338
B8	0.0055
B3	0.0118
B4	0.0068
B5	0.0247

target: T2, human GLP-1 receptor; assay: cell-based or functional assay; remark: another data set of the same source

Binder	EC50 hGLP-1R [nM]
B1	0.0018
B2	0.0026
B8	0.0019
B3	0.0018
H[dS]HGTFTSDLSKQK([γGlu-γGlu-Palmitoyl])DEEAARLFIEWL[Aib]AGGPSSGAPPPS-NH2 [SEQ ID NO: 7]	0.0015
B6	0.0012

target: T1, human GIP receptor; assay: cell-based or functional assay; remark: another data set of the same source

Binder	EC50 hGIP-1 [nM]
B1	7.78
B2	1.54
B8	0.565
B3	3.6
H[dS]HGTFTSDLSKQK([γGlu-γGlu-Palmitoyl])DEEAARLFIEWL[Aib]AGGPSSGAPPPS-NH2 [SEQ ID NO: 7]	0.908
B6	0.56

target: T3, human glucagon receptor; assay: cell-based or functional assay; remark: another data set of the same source

Binder	EC50 hGlucagon-R [nM]
B1	0.0354
B2	0.0177
B8	0.0055
B3	0.0118
H[dS]HGTFTSDLSKQK([γGlu-γGlu-Palmitoyl])DEEAARLFIEWL[Aib]AGGPSSGAPPPS-NH2 [SEQ ID NO: 7]	0.009
B6	0.0051
